Here are results for 21 molecules from paper PMC8196545 (Cell reports, 2021).

This test has as its target HIV-1 NL4-3 Env on infected cells (HIV-1 group M subtype B, NL4-3 (pNL4-3 …, strain)).

B1: c5275 (antibody, V domains shown)
VH: QGQLVESGGGVVQPGTSLRLSCKASGFSFSNHVMHWVRQAPGKGLEWVAAIWDDGSNQYYRDSVKGRFTISRDNSKNTLFLQMSSLTVQDTAIYFCARRMSAVGTIFAYFNYGMDVWGRGTTVIVSS
VL: EVVLTQSPGTLSLSPGERGTLSCRASQHLSDSSLAWYQQKPGQAPRLLIYAASRRATGIPDRFSGSGSGTDFTLTISRLDPDDFAVYYCQHYGNSPVITFGQGTRLDIK
On to B1, for which the binding result was “binds”.

B2: c2518 (antibody, V domains shown)
VH: QVRLHQWGEGLLRPSDTLTLSCSLSGNVFYNTFFNWVRQSPGRGLEWIAEVSFAGEWTFNPSLRSRVTTQVDGFTYRVSLFLKSMTAADAGVYYCASGGGSFDVDSWGPGIRVTVSS
VL: EIVLTQTPLSSPVSLGQSASISCRSSQSLRHNNGNTYLSWFQQRPGQPPRLLIRKISDRFSGVPNRFSGSGAGTDFTLRIDRVEPEDVGTYYCLQATQFPWTFGQGTTVDIK
In the case of B2, the binding result is given as “binds”.

B3: c5237 (antibody, V domains shown)
VH: QVQLQESAPRLVKTSETLSLTCTVSGSHFYPYFYSWIRQSPGGKLQWIGRMYSTTGSMRTNPSLHTRVGMPLDHSRSQIGLTMSSMTAADTGIYYCVRDIMREFDSVDGSGGIYGGVDVWGRGTTVTVSS
VL: QFVLTQPPSVSGSPGKTVIISCTRSGGTFARNSVRWYLQRPGEIPTTVFFDGNRRASGIPDRFSASIGVSSTSASLTISGLTPEDEADYYCESSDGGHHVVFGGGTKVTVL
Regarding B3, the binding result is reported as “binds”.

B4: c8395 (antibody, V domains shown)
VH: AVQFLQSGAEVKKPGESLKISCQDRGYGFNDYWIAWVRQMPGKGLEWMGLIYPDDSDTRYSPSFQGQVTILADKSINTAYLQWNSLKASDSAIYYCARLMVVDERSENTFDIWGQGTVVTVFS
VL: SSGLAQSPSLSVSPGQTATVTCSGDPLVNHFASWYQQQPGQSPILVIYQDNQRPSGIPERFSGSKTGNTATLTIGETQAADEADYFCQSWDITTAGMIFGGGTKLTVL
In the case of B4, the binding result is listed as “binds”.

B5: c11422 (antibody, V domains shown)
VH: EARLVESGGGRVQPGGSLRLSCEASGFRFSSYSFNWVRQSPGKGLEWLAKISASPFGRSQINYAHSVEGRFIISRDNDGNSLRLQMNDLRGADTGVYYCARAPWQERNLDYNYAMDVWGQGTTVIVSS
VL: ELVLTQSPGTLSLSPGERATVSCRASQSLRRDSLAWYQQKPGHSPRLLIFAASNRVPGIPYRFSGSGSGTQFTLTIDKMEPEDFAVYYCQTYGSSPLYTFGQGTKLDIN
In the case of B5, the binding result is reported as “binds”.

B6: c29323 (antibody, V domains shown)
VH: QVQLQESGPGLVRPSETLSLTCVVSGDSITRNYWSWLRQPPGKTLEWIGFMYDSGTVNYNPSLQSRVSISVDTSNNQFFLRLTSVTAADTAVYYCARHPSRGSDYDSATGDTYYYYYGMDVWGPGTSVVVSS
VL: DIQLTQSPPSLSASVGDRIVISCRATRDIGTSLNWYQQKPGQSPKLLIVAASTLESGVPSRFSAAGSATHFTLTISALQHDDVATYFCQQYLSLPLTFSGGTRVDLR
As for B6, the binding result is “binds”.

B7: c5338 (antibody, V domains shown)
VH: HVRLEQWGPGLLKPSETLSLSCVVHGESFDPYSWTWIRQSPKMGPQWLGEIRPFGETVYNPSLSGRLSLSRDNSKRLISLRLTSVSAADSAVYFCARGPVIYEVPYFWYRGLNVWGPGTTVVVST
VL: DVVVTQSPLSVSVTPGESATILCKSSHSLRHDNGMHYLDWYLQKPGQSPQLLIYLSSNRASGVPDRFIGSGSGTDFTLKISRVEAEDVGMYFCMQGRQDPRIFGRGTRLEIK
For B7, the binding result is given as “binds”.

B8: c11058 (antibody, V domains shown)
V domain 1: EVRLDQSGTEMRKPGTRVRLSCKVSGHTTSDFFVHWVQQTPQGGPQWMGLINVEDENVIYADIFQGRISIVADTSKKTVFLDLTDLTFEETALYFCTTHTLQKDTGDYVAAFDSWGRGTLLYVSS
V domain 2: QPVLTQPPSVSAVPGQKVIISCSGRTSNIGTNFVSWYQQFPGAAPKLLIYDDFNRPSGISDRFSASKSDTSATLAITALQPGDEAEYYCGAWDSGLNPAVFVFGSGTRVFVL
B8: the binding result is “binds”.

B9: c10833 (antibody, V domains shown)
V domain 1: EVRLDQSGAEMRKPGTSVRLSCTVSGHTTNDFFIHWVKQDPQRGPLWMGLINVEDENVIYAEEFQGRISIVADSSKTTVFLDLSHLTFEDTALYLCTTHTLEKETGDYVAAFDSWGQGTFLSVSS
V domain 2: QSVLTQPPSVSAVPGQKVIISCSGRTSNIGTNFVSWYQQFPGAAPKLLIYDTFHRPSGISDRFSASKSDTSATLAITALQPGDEAEYYCGSWDSGLNPAVFVFGSGTRVFVL
B9: the binding result is given as “binds”.

B10: c5392 (antibody, V domains shown)
VH: ELQLKESGPGLVKPSETLSLTCAVSGGPMCADWCFYYHWNWVRLSAEKGLEWMGRIHISGTAEYNPSFKGRATISLDISKNELSLTMTSLAAADTAVYFCARSGGNFHPTYFYMMDIWGRGTTVVVSS
VL: DIQMTQSPSTLYASLGETVTITCRASQNIKKWLAWYQMRPGRAPRLLIYMATYRHDADSARYIGSESGGEFTLTIKSLRPDDFGTFYCQQYGAQPWTFGQGTRLEVK
Consider B10, for which the binding result is listed as “binds”.

B11: c9497 (antibody, V domains shown)
VH: QVQLVQSGAEVKKPGSSVKVSCKASGGSFSDYGISWVRQAPGQGLEWMGGIIPGLETTKFAQGLQGRLTMTADESSTTAYMVLTRLRSQDTAVYYCATTGQQNDYYSSGTSYKLNYYFGMDVWGQGTTVTVSS
VL: QSVLTQPPSSSGTPGQRVTITCSGGSSNIETNSVNWYQQLPGAAPKTVISATHQRPSGVPDRFSASKSGASASLAISGLQSEDEADYYCAVWDDSLHAWVFGGGTKVTVL
On to B11, for which the binding result was “binds”.

B12: c24251 (antibody, V domains shown)
VH: QVQLQESGPGLVKPSETLSLTCTVSGASINSYYWSWIRQTPGKGLEWIGFISNAGTTKYNPSLQSRVTISRDTSKNQVSLHLTSVTAADTAVYHCARDGLPGSNWGYNYAGMDVWGQGTTVTVTS
VL: DIQMTQSPSTLSASVGDRVTITCRTSQPISVWLAWYQQKPGKAPKVLIYRASSLEDGVPSRFSGSGSGTEFTLTISSLQPDDFATYFCQHYNTFSRTFGQGTKVEIK
As to B12, the binding result is “binds”.

B13: c9674 (antibody, V domains shown)
VH: EVKLVESGGTLVKPGGSLRISCAASGFRFSSYSFNWVRQAPGKGPEWVAYISASPLGRSKVNYAHSVEGRFSVSRDNDAKSLHLQMSGLTRDDTAVYHCARAPWYEGNFNYNYAMDVWGQGTTVIVSS
VL: GVVLTQSPGTLSLSPGERVTVSCRASQSLSRDSLVWYQQKPGQPPRLLIYGASNRVPGIPDRFSGDGSGTQFTLTINRLEPEDFGVYYCQSYGHSPLYSFGQGTKLEIK
B13: the binding result is “binds”.

B14: c11465 (antibody, V domains shown)
VH: EVKLVESGGTQVQPGGSLRISCVGSGFRFSSYSFNWVRQAPGKGPEWVAYISASPFGRSKVTYAHSVEGRFIVSRDNDANSLYLQMTGLTRDDTAVYHCARAPYYEGNFQYNYAMDVWGLGTTVIVSS
VL: GVVLTQSPGTLSLSPGERATVSCRASQSLTRDSLVWYQQKPGQPPRLLIYGTSNRVPGIPDRFSGGGSGTQFTLTISRLEPEDFAVYYCQSYGLSPLYSFGQGTKLDIK
For the molecule B14, the binding result is given as “binds”.

B15: c7488 (antibody, V domains shown)
VH: QVRLEQWGGGLLKPSETLSLTCAAWDDNFHRYHWTWVRQFPGGRLQWIGQCEPFGAIKSNPSLGGRAGLSLDDSLRRFILTLRSLNVADTGVYFCVRGPERFHQPHFYYQGLGLWGPGSPVIVSS
VL: DVELTQSPLSLSVNPGESVSLFCRSTESLRNANGHDYLDWYVQKPGQSPQILIFLGSGRASGLPDRITASGSGSAFTLRIDKVEADDVGVYYCMQSIQLPRTFGQGTRLEIK
Regarding B15, the binding result was “binds”.

B16: c8540 (antibody, V domains shown)
VH: QVQLLQSGPEVKKPGASVKVSCKTSGYTFTSYAITWVRQAPGEGLEWLGWISPHSRTAKYAQKFQGRLTMTTDTSTATAYMDLRSLSPDDTAVYYCARRIYDWDIERARFDPWGQGTLVAVSS
VL: QSVLTQPPSVSADPGQRVTISCSGSSSNIGKNFVSWYQQLPGTAPKLVIYDNDRRPSGIPDRFSGSKSGTSATLGITGLQTGDEAAYYCATWDSGLNDGPVFGGGTRLTVL
B16: the binding result is on record as “binds”.

B17: c24148 (antibody, V domains shown)
VH: QVEVQESGPGLVKPSETLSLTCSVSGGSITGYYWSWIRQAPGKGLEWIGFISPGGSARYNPSLKSRVTISKDASTNQVSLRLISVTASDTAVYFCVRDGAAGNNWGYNYYGMDVWGQGTTVTVSS
VL: DIQLTQSPSTLSASIGDRVTITCRASQSISVWLAWYQQKPGKAPNLLIYRASTLDSGVPSRFSGSGSGTEFTLTISSLQPDDLGTYYCQHYDTPSRTFGPGTKVEIT
Take B17: the binding result is on record as “binds”.

B18: c9488 (antibody, V domains shown)
VH: QVQLVQSGSEVKKPGASVKVSCKASDYTFPNFGISWLRQAPGQGLEWMGWIRGSDGETNYAQKFKDRVTLTTERSRGTAYMELRSLISDDTAVYYCARDLKWDCSKRGCPDYQWFDIWGQGTLVTVSS
VL: DVVMTQSPLSLPVTLGQPASISCISSHSLVYTDGNTYLAWFQQRPGQSPRRLIYTVSKRDSGVPDRFSGSGSGTDFTLKISRVEAEDVGIYFCMQGRHWPYTFGQGTTLEIK
B18: the binding result is reported as “binds”.

B19: c13217 (antibody, V domains shown)
VH: QVQLVESGGGVVQPGKSLRLSCTASGFDVGHFTMHWVRQAPGKGLEWVGLTRTDGNTEEYADSVKGRFAISRDNSKNTLSLQLNNVRAEDTAVYYCAKERVPLTAYAFDYWGQGTLVTVSS
VL: DIQMTQSPSSLSASVGDRVTITCRSSERIRTYVNWYQQKPGQAPQLLIYAASTLQNGVPSRFSGSGSGTVFTLTVNSLQPADFATYSCQQSYSLPWTFGQGTRVEVN
On to B19, for which the binding result is given as “binds”.

B20: c1174 (antibody, V domains shown)
VH: QVRLHQWGEGLLRPSDTLSLTCSLSGNVFYRTFFNWIRQSPGKGLEWIAEVSFTGDWTYNPSLKSRVTTYVDGFKYHVSLQMSSMTAADAGVYYCASGGGSFDVDSWGQGIRVTVSS
VL: EIVLTQTPLSSSVTLGQSASISCRSSQSLQHSNGNTYLSWFQQRPGQPPRLLIRKISNRFSEVPDRFSGSGSGTDFTLTIDRVEPEDVGTYYCVQATQFPWTFGQGTTVDIT
For B20, the binding result is given as “binds”.

B21: c1134 (antibody, V domains shown)
VH: QVRLHQWGEGLLRPSDTLSLTCSLSGNVFYETFFNWIRQSPGKGLEWIAEVSFAGDWNYNPSLKSRVTTYVDGFKYHASLQMSSMTAADAGVYYCAAGGGSFDVHSWGQGIRVTVSS
VL: EIVLTQAPLSSSVTLGQAASISCTSNHSLQHSNGNTYLSWFQQRPGQPPRLLIRKISNRGSGVPDRFSGSGSGTHFTLTIDRVEPEDVGTYYCVQATQFPWTFGQGTTVDIT
As to B21, the binding result is on record as “binds”.
